Test results as given in US10550165B2, “Peptide for inducing regeneration of tissue and use thereof” (STEMRIM INC., priority 2011, dated 2020).

Experiments:
[1] = system: mouse bone marrow mesenchymal stem cell line (MSC-1 cells), PDGFRα-positive; experiment: Migration assay (Boyden / 48-well chemotaxis chamber) on bone marrow mesenchymal stem cell line MSC-1; type: cell-based; settings: for migration-promoting activity per equal mass, 2-215 taken as 1 / migration-promoting activity per molar concentration, 2-215 taken as 1: FIGS. 18C and 18D
Method in brief: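 Mouse MSC-1 cells (3×10^6 cells/ml in D-MEM with 10% FBS) loaded in the upper wells of a 48-well Boyden chamber with 8 μm polycarbonate membrane; mouse HMGB1 peptides or HEK293-made HMGB1 in lower wells at 100 μg/ml, 5 μM or 10 μM; PBS as negative control. After 4 h at 37° C, migrated cells were Diff-Quik stained.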

[2] = system: human-derived bone marrow mesenchymal stem cells (hMSC); experiment: Migration assay on human-derived bone marrow mesenchymal stem cells; type: cell-based; settings: human HMGB1 fragments produced in E. coli, 2 μM, FIG. 21B
Description: Human HMGB1 fragments (2-215, 2-84, 2-44, 45-84, 85-169, 89-185, 89-195, and 89-205) were produced in E. coli and purified using appropriate columns in the same manner as described in Examples 14, 15, and 16 above. However, 89-215 was purified by the same method as used for 89-205 in Example 15.
Using human-derived bone marrow mesenchymal stem cells, each fragment was examined by the same migration assay performed on mouse-derived bone marrow mesenchymal stem cells (MSC-1) as described above. The fragments were used at a final concentration of 2 μM. The human-derived bone marrow mesenchymal stem cells used were hMSC (human Mesenchymal Stem Cell, Takara) at fourth passage. The growth medium used was a mesenchymal stem cell growth medium (MF medium, TOYOBO). The cells were cultured in an incubator under 5% CO2 at 37° C. The medium was changed with a fresh medium every two to four days. The cells were passaged when they reached 80% confluency.

[3] = system: skin flap made on the back of a rat; experiment: Skin flap (skin damage) model on the back of rats; type: in vivo
Procedure: Experimental animals used were SD rats (male, eight weeks old). After sufficiently deep anesthesia by isoflurane inhalation, a rectangular skin incision of 3 cm width×7 cm length was made on the back. The cephalic side was left uncut, and the skin was thoroughly detached from the subcutaneous tissues. The three incised sides were sutured to the surrounding skin using #4 silk suture, and protected with Tegaderm (3M) to prevent bacterial infection.
The full-length mouse HMGB1 (100 μg/administration/day) produced in HEK293 and chemically synthesized HMGB1 peptide (amino acids 1 to 44; 50 μg/administration/day) were diluted to 200 μl with phosphate buffer and administered to rats via the caudal vein. The first administration was performed 6 hours after the surgery, and then the agents were administered every 24 hours a total of five times. Phosphate-buffered physiological saline was administered as a negative control. Tegaderm was removed after one week, and the wound region was observed weekly to measure the areas of necrosis and ulceration.
Experimental animals used were 15 SD rats (male, eight weeks old) per group. After sufficient anesthesia by isoflurane inhalation, a rectangular skin incision of 3 cm width×7 cm length was made on the back. The cephalic side was left uncut, and the skin was thoroughly detached from the subcutaneous tissues. The incised three sides were sutured to the surrounding skin using #4 silk suture, and protected with Tegaderm (3M) to prevent bacterial infection.
Chemically synthesized HMGB1 peptide (amino acids 1-44; 50 μg/administration/day) or HMGB1 peptide (amino acids 17-25; 50 μg/administration/day) was diluted to 200 μl with phosphate buffer and administered to the rats with experimental wound. The first administration was performed 6 hours after the surgery, and then the agents were administered every 24 hours a total of five times. Phosphate-buffered physiological saline was administered as a negative control. Tegaderm was removed after one week, and the wound was observed two weeks after the wound production. Uncured areas (ulceration and necrosis) were measured.

[4] = Youn et al., J Immunol 2008; cited from earlier work
mesoangioblasts = settings: Palumbo et al., J. Cell Biol. 2004; cited from earlier work
[5] = human HMGB1 fragments produced in E. coli, 2 μM, FIG. 18B
[6] = human HMGB1 fragments produced in E. coli, 2 μM
[7] = protein and peptides produced using HEK293 (mouse HMGB1), 50 μg/ml, 4 h, FIG. 2A
[8] = human HMGB1 fragments 89-215, 89-205, 89-195, 89-185 and their Q column fractions, E. coli, 2 μM, FIGS. 19B and 19D
[9] = produced in E. coli, 2 μM, FIGS. 20B and 20C

45-84: peptide of positions 45 to 84 of mouse HMGB1, produced using HEK293 (CSERWKTMSAKEKGKFEDMAKADKARYEREMKTYIPPKGE; UniProt P63158 45-84, looked up, fragment)
migration-promoting activity [1, 5]: showed migration-promoting activity on bone marrow mesenchymal stem cells | migration-promoting activity per equal mass, 2-215 taken as 1 [1, 6]: 8.1 times | migration-promoting activity per molar concentration, 2-215 taken as 1 [1, 6]: 2.04 times | migration-promoting activity [1, 7]: showed migration-promoting activity | migration-promoting activity [2]: greater than human HMGB1 fragment (2-215)

2-44: human HMGB1 fragment, positions 2 to 44, produced in E. coli (GKGDPKKPRGKMSSYAFFVQTCREEHKKKHPDASVNFSEFSKK; UniProt P09429 2-44, looked up, fragment)
migration-promoting activity [1, 5]: showed migration-promoting activity on bone marrow mesenchymal stem cells | migration-promoting activity per equal mass, 2-215 taken as 1 [1, 6]: 7.1 times | migration-promoting activity per molar concentration, 2-215 taken as 1 [1, 6]: 1.82 times | migration-promoting activity [2]: greater than human HMGB1 fragment (2-215)

1-215: whole mouse HMGB1 produced in HEK293, positive control [reference compound]
area of wound section (necrosed section) in the skin flap ([3]; one to three weeks after the skin flap was made, versus negative control, FIG. 25): effect of shrinking the wound section was confirmed | rats in which skin necrosis developed ([3]; one week after surgery, caudal vein, five administrations, full-length 100 μg, peptide 50 μg/administration/day, negative control four of five): three of five rats | rats with severe skin contracture ([3]; seven weeks after surgery, same regimen, negative control four of five, FIG. 24): three of five rats | migration-promoting activity [1, 7]: showed migration-promoting activity | LPS-binding activity [4]: known to have the binding activity with lipopolysaccharide (LPS)

B1: amino acids of positions 1 to 89: HMGB1 sequence consisting of the amino acids of positions 1 to 89 (Palumbo et al.) (protein, UniProt P09429 1-89, looked up, fragment)
chain: MGKGDPKKPRGKMSSYAFFVQTCREEHKKKHPDASVNFSEFSKKCSERWKTMSAKEKGKFEDMAKADKARYEREMKTYIPPKGETKKKF
cell migration-promoting activity (mesoangioblasts): almost no activity

B2: amino acids 1 to 79: HMGB1 fragment of amino acids 1 to 79 (Youn et al.) (protein, UniProt P09429 1-79, looked up, fragment)
chain: MGKGDPKKPRGKMSSYAFFVQTCREEHKKKHPDASVNFSEFSKKCSERWKTMSAKEKGKFEDMAKADKARYEREMKTYI
LPS-binding activity [4]: lack the LPS-binding activity

B3: 89-195: human HMGB1 fragment, positions 89 to 195, produced in E. coli (protein, UniProt P09429 89-195, looked up, fragment)
chain: FKDPNAPKRPPSAFFLFCSEYRPKIKGEHPGLSIGDVAKKLGEMWNNTAADDKQPYEKKAAKLKEKYEKDIAAYRAKGKPDAAKKGVVKAEKSKKKKEEEEDEEDEE
migration-promoting activity [1, 8]: stronger activity than any fragments between positions 89 and 215 | migration-promoting activity [2]: exhibited stronger activity

B4: 89-185: human HMGB1 fragment, positions 89 to 185, produced in E. coli (protein, UniProt P09429 89-185, looked up, fragment)
chain: FKDPNAPKRPPSAFFLFCSEYRPKIKGEHPGLSIGDVAKKLGEMWNNTAADDKQPYEKKAAKLKEKYEKDIAAYRAKGKPDAAKKGVVKAEKSKKKK
migration-promoting activity [1, 8]: stronger activity than any fragments between positions 89 and 215 | migration-promoting activity [2]: exhibited stronger activity

B5: 2-84: human HMGB1 fragment, positions 2 to 84, produced in E. coli (protein, UniProt P09429 2-84, looked up, fragment)
chain: GKGDPKKPRGKMSSYAFFVQTCREEHKKKHPDASVNFSEFSKKCSERWKTMSAKEKGKFEDMAKADKARYEREMKTYIPPKGE
migration-promoting activity ([1]; fragment 2-84 and fusions with acidic tail fragments, produced in E. coli, FIG. 21D): exhibited migration-promoting activity | migration-promoting activity [1, 5]: showed migration-promoting activity on bone marrow mesenchymal stem cells | migration-promoting activity per equal mass, 2-215 taken as 1 [1, 6]: 5.5 times | migration-promoting activity per molar concentration, 2-215 taken as 1 [1, 6]: 2.37 times | migration-promoting activity [2]: greater than human HMGB1 fragment (2-215)

B6: amino acids of positions 1 to 187: HMGB1 sequence of positions 1 to 187 resulting from cleavage at the C terminal end (Palumbo et al.) (protein, UniProt P09429 1-187, looked up, fragment)
chain: MGKGDPKKPRGKMSSYAFFVQTCREEHKKKHPDASVNFSEFSKKCSERWKTMSAKEKGKFEDMAKADKARYEREMKTYIPPKGETKKKFKDPNAPKRPPSAFFLFCSEYRPKIKGEHPGLSIGDVAKKLGEMWNNTAADDKQPYEKKAAKLKEKYEKDIAAYRAKGKPDAAKKGVVKAEKSKKKKEE
cell migration-promoting activity (mesoangioblasts): retains the cell migration-promoting activity of HMGB1

B7: Human HMGB1 fragment (85-169): human HMGB1 fragment, positions 85 to 169, produced in E. coli (protein, UniProt P09429 85-169, looked up, fragment)
chain: TKKKFKDPNAPKRPPSAFFLFCSEYRPKIKGEHPGLSIGDVAKKLGEMWNNTAADDKQPYEKKAAKLKEKYEKDIAAYRAKGKPD
migration-promoting activity compared with 2-215 ([1]; produced in E. coli, 2 μM, FIG. 20A): stronger migration-promoting activity on bone marrow mesenchymal stem cells than human HMGB1 fragment (2-215) | migration-promoting activity per equal mass (reference taken as 1) [1, 9]: 3.6 times | migration-promoting activity per molar (reference taken as 1) [1, 9]: 1.59 times | migration-promoting activity [2]: greater than that of human HMGB1 fragment (2-215)

B8: amino acids 88 to 162: HMGB1 fragment of amino acids 88 to 162 (Youn et al.) (protein, UniProt P09429 88-162, looked up, fragment)
chain: KFKDPNAPKRPPSAFFLFCSEYRPKIKGEHPGLSIGDVAKKLGEMWNNTAADDKQPYEKKAAKLKEKYEKDIAAY
LPS-binding activity [4]: lack the LPS-binding activity

B9: amino acids of positions 90 to 176: HMGB1 sequence consisting of the amino acids of positions 90 to 176 (Palumbo et al.) (protein, UniProt P09429 90-176, looked up, fragment)
chain: KDPNAPKRPPSAFFLFCSEYRPKIKGEHPGLSIGDVAKKLGEMWNNTAADDKQPYEKKAAKLKEKYEKDIAAYRAKGKPDAAKKGVV
cell migration-promoting activity (mesoangioblasts): almost no activity

B10: amino acids of positions 1 to 176: HMGB1 sequence consisting of the amino acids of positions 1 to 176 (Palumbo et al.) (protein, UniProt P09429 1-176, looked up, fragment)
chain: MGKGDPKKPRGKMSSYAFFVQTCREEHKKKHPDASVNFSEFSKKCSERWKTMSAKEKGKFEDMAKADKARYEREMKTYIPPKGETKKKFKDPNAPKRPPSAFFLFCSEYRPKIKGEHPGLSIGDVAKKLGEMWNNTAADDKQPYEKKAAKLKEKYEKDIAAYRAKGKPDAAKKGVV
cell migration-promoting activity (mesoangioblasts): almost no activity
